Molecular target: NSF_(E326Q):GFP (dominant-negative variant of NSF, GFP-tagged) (Arabidopsis thaliana) (UniProt Q9M0Y8)
Test: co-IP

Chain of UniProt Q9M0Y8 (Q9M0Y8 whole entry E326Q): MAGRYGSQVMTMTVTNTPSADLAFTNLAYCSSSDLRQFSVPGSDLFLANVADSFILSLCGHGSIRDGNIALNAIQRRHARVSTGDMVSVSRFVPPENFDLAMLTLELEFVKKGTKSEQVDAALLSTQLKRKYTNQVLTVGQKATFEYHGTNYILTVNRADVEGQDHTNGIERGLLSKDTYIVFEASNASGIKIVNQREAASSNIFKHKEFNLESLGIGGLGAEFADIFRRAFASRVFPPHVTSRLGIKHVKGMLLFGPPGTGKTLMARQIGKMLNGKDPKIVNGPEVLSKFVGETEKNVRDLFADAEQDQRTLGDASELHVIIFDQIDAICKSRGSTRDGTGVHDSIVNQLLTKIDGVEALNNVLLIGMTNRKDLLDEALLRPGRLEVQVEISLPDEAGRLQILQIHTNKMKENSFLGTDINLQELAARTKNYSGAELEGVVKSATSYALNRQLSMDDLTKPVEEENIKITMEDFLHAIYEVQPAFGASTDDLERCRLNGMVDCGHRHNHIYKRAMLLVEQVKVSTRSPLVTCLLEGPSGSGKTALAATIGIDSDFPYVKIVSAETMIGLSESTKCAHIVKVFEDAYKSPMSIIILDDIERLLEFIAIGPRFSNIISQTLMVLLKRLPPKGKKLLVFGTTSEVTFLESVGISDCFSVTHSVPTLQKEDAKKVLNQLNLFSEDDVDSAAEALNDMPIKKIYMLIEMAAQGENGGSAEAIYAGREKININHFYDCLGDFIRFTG

KNOLLE (cytokinesis-specific Qa-SNARE) (natural protein)
fold increase of co-precipitation relative to wild-type NSF: 38 fold
